{"source": "IntAct's records for PubMed 29610859", "target": "ubql1_human UBQLN1 (UniProt Q9UMX0)", "sequence (Q9UMX0 whole entry)": "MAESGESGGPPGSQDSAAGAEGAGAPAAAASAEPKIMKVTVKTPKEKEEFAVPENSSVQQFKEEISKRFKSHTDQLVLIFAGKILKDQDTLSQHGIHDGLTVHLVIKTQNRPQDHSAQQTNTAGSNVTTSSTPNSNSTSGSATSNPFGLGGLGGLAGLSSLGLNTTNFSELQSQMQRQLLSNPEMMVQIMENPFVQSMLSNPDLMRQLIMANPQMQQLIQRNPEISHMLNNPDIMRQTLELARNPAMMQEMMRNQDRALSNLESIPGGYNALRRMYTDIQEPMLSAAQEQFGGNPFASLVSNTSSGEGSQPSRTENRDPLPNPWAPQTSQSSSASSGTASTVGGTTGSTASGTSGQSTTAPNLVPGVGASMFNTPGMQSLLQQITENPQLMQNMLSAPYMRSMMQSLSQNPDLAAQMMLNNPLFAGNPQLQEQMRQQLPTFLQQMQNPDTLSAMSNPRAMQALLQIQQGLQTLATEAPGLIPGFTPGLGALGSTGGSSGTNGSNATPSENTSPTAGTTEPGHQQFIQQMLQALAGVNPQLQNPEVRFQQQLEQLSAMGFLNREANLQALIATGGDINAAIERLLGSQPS"}
{"substance": "Cytochrome c oxidase subunit 1 (Homo sapiens) (from UniProt P00395) V83I", "values": [{"measurement": "effect of a mutation on the interaction", "value": "with no effect"}]}
